The target in experiment [1] is ED-B domain of human fibronectin, recombinant, with C-terminal six-histidine tag (human) (UniProt P02751). As to the kind of experiment: ELISA on coated ED-B, Scatchard assay (Beatty et al.). (In general: ELISA stands for enzyme-linked immunosorbent assay.)
In experiment [2] the target is T1, ED-B domain of human fibronectin, recombinant, with C-terminal six-histidine tag (human, UniProt P02751 1266-1356).
T1 construct: Expressed in E. coli from pET-22b(+) (EcoRI/NotI); residues from the vector between ED-B and the tag are not described; also called EDB antigen; antigen ED-B
As to the kind of experiment: direct ELISA on coated ED-B, Scatchard analysis (Beatty et al.).

T1 sequence (P02751 other isoform, or with tags, fused parts or gaps limits assumed): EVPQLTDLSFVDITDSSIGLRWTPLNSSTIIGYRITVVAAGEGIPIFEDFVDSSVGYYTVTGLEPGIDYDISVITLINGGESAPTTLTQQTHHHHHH
ED-B domain of human fibronectin, recombinant, with C-terminal six-histidine tag (human), sequence (P02751 other isoform, or with tags, fused parts or gaps limits assumed): as above

Regarding L19-Fc (Fc fusion), the dissociation constant Kd (as a rule, a measure of binding affinity in units of concentration) in experiment [1] turned out to be 6 nM.

B1: A11 antibody (Fc fusion)
chain: EVQLLESGGGLVQPGGSLRLSCAASGFTFSSYAMSWVRQAPGKGLEWVSRISPSGSSTYYADSVKGRFTISRDNSKNTLYLQMNSLRAEDTAVYYCARRMSYFDYWGQGTLVTVSSGGGGSGGGGSGGGGSSQSALTQPASVSGSPGQSITISCSGDSLGIGSNNYVSWYQQHPGKAPKLMIYDDNKRPSGVSNRFSGSKSGNTASLTISGLQAEDEADYYCQSWDGRQPVFGGGTKLTVLG
notes: Assayed as purified Fc-containing antibody from mammalian cells
Take B1: the “affinity relative to L19” value in experiment [2] was roughly 3 fold.
